Data on 94 variants can be found in the supplement of paper PMC10567573.

The labels stand for the following.
B1: KLHL20 (parent)
chain: YQDMIYAVGGRDDTTELSSAERYN
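Further: lentivirally expressed fusions sorted by FACS into six bins by GFP to DsRed ratio, PSI derived from sequencing read proportions per bin multiplied by bin number.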

Variants of B1 are the subject of the data set. Kind of data set: protein stability index of a GFP-peptide fusion (GPS, HEK-293T) (PSI 1-6); higher = more stable. The note with it: c terminus: a fixed tail appended.
With YQDMIYAVGGRDDTTGLSSAERYN, the protein stability index is 2.28.
Turning to YQDMIYAVGGRDDTTELSCAERYN, the protein stability index is 2.16.
As for YQDMIYAVGGRDDTTELSAAERYN, the figure is 2.87; as for YQDMIYAVGGRDDTTELSYAERYN, 1.8.
Turning to YQDMIYAVGGRDDTTELSMAERYN, the protein stability index was 2.01.
For the variant YQDMIYAVGGRDDTTELSPAERYN, the protein stability index came out at 2.66.
For the variant YQDMIYAVGGRDDTTELSIAERYN, the protein stability index came out at 2.01.
For YQDMIYAVGGRDDTTELSEAERYN, the protein stability index worked out at 2.45.
In the case of YQDMIYAVGGRDDTTELSKAERYN it was 2.34; in that of YQDMIYAVGGRDDTTELSFAERYN, 2.31; in that of YQDMIYAVGGRDDTTELSRAERYN, 2.53.
For YQDMIYAVGGRDDTTELSHAERYN, the protein stability index was found to be 2.33.
YQDMIYAVGGRDDTTELSWAERYN: the protein stability index is 1.99.
As for YQDMIYAVGGRDDTTELSQAERYN, the figure is 2.25.
In the case of YQDMIYAVGGRDDTTELSDAERYN, the protein stability index was found to be 2.43.
Regarding YQDMIYAVGGRDDTTELSNAERYN, the protein stability index was 2.11.
With YQDMIYAVGGRDDTTELSGAERYN, the protein stability index is 2.32.
As to YQDMIYAVGGRDDTTELSTAERYN, the protein stability index was 2.54.
In the case of YQDMIYAVGGRDDTTELSVAERYN it was 1.99; in that of YQDMIYAVGGRDDTTELSLAERYN, 2.02.
In the case of YQDMIYAVGGRDDKTELSSAERYN, the protein stability index amounted to 2.17.
For YQDMIYAVGGRDDSTELSSAERYN, the protein stability index turned out to be 2.48.
For the variant YQDMIYAVGGRDDRTELSSAERYN, the protein stability index came out at 2.13.
Take YQDMIYAVGGRDDPTELSSAERYN: the protein stability index was determined as 2.89.
With YQDMIYAVGGRDDDTELSSAERYN, the protein stability index amounted to 2.79.
Consider YQDMIYAVGGRDDWTELSSAERYN, for which the protein stability index amounted to 1.56.
Regarding YQDMIYAVGGRDDNTELSSAERYN, the protein stability index is 2.36.
For the variant YQDMIYAVGGRDDHTELSSAERYN, the protein stability index amounted to 1.98.
In the case of YQDMIYAVGGRDDVTELSSAERYN it was 2.25; in that of YQDMIYAVGGRDDETELSSAERYN, 2.78.
For the variant YQDMIYAVGGRDDCTELSSAERYN, the protein stability index was found to be 2.47.
In the case of YQDMIYAVGGRDDATELSSAERYN it was 1.82; in that of YQDMIYAVGGRDDQTELSSAERYN, 2.35.
As for YQDMIYAVGGRDDYTELSSAERYN, the figure is 2.1; as for YQDMIYAVGGRDDMTELSSAERYN, 2.01; as for YQDMIYAVGGRDDLTELSSAERYN, 2.48.
As for YQDMIYAVGGRDDITELSSAERYN, the figure is 2.09; as for YQDMIYAVGGRDDGTELSSAERYN, 2.47.
On to YQDMIYAVGGRDDFTELSSAERYN, for which the protein stability index was found to be 2.18.
YQDMIYAVGGRDDTTELSSRERYN: the protein stability index was 2.76.
Regarding YQDMIYAVGGRDDTTELSSNERYN, the protein stability index stood at 2.82.
In the case of YQDMIYAVGGRDDTTELSSFERYN it was 2.04; in that of YQDMIYAVGGRDDTTELSSIERYN, 2.05.
In the case of YQDMIYAVGGRDDTTELSSHERYN it was 2.74; in that of YQDMIYAVGGRDDTTELSSSERYN, 1.98.
As for YQDMIYAVGGRDDTTELSSGERYN, the figure is 2.29; as for YQDMIYAVGGRDDTTELSSEERYN, 3.06.
With YQDMIYAVGGRDDTTELSSTERYN, the protein stability index amounted to 2.21.
In the case of YQDMIYAVGGRDDTTELSSVERYN, the protein stability index is 2.41.
With YQDMIYAVGGRDDTTELSSCERYN, the protein stability index was 2.15.
With YQDMIYAVGGRDDTTELSSKERYN, the protein stability index was found to be 2.03.
For YQDMIYAVGGRDDTTELSSMERYN, the protein stability index came to 2.38.
On to YQDMIYAVGGRDDTTELSSQERYN, for which the protein stability index turned out to be 2.91.
As for YQDMIYAVGGRDDTTELSSDERYN, the protein stability index turned out to be 2.79.
Regarding YQDMIYAVGGRDDTTELSSLERYN, the protein stability index was 1.82.
Take YQDMIYAVGGRDDTTELSSPERYN: the protein stability index is 2.05.
For the variant YQDMIYAVGGRDRTTELSSAERYN, the protein stability index is 1.75.
In the case of YQDMIYAVGGRDWTTELSSAERYN it was 1.77.
In the case of YQDMIYAVGGRDSTTELSSAERYN, the protein stability index turned out to be 2.18.
In the case of YQDMIYAVGGRDVTTELSSAERYN it was 2.49.
As for YQDMIYAVGGRDPTTELSSAERYN, the protein stability index turned out to be 2.03.
Consider YQDMIYAVGGRDETTELSSAERYN, for which the protein stability index amounted to 2.36.
Consider YQDMIYAVGGRDGTTELSSAERYN, for which the protein stability index stood at 2.
On to YQDMIYAVGGRDYTTELSSAERYN, for which the protein stability index turned out to be 1.97.
Consider YQDMIYAVGGRDTTTELSSAERYN, for which the protein stability index was 2.18.
YQDMIYAVGGRDCTTELSSAERYN: the protein stability index is 1.8.
With YQDMIYAVGGRDLTTELSSAERYN, the protein stability index was 2.06.
For the variant YQDMIYAVGGRDFTTELSSAERYN, the protein stability index is 2.08.
For the variant YQDMIYAVGGRDHTTELSSAERYN, the protein stability index turned out to be 1.98.
Take YQDMIYAVGGRDITTELSSAERYN: the protein stability index was determined as 2.26.
As to YQDMIYAVGGRDATTELSSAERYN, the protein stability index came out at 1.66.
Take YQDMIYAVGGRDMTTELSSAERYN: the protein stability index is 1.34.
As for YQDMIYAVGGRDQTTELSSAERYN, the figure is 2.11; as for YQDMIYAVGGRDNTTELSSAERYN, 2.01.
With YQDMIYAVGGRDKTTELSSAERYN, the protein stability index is 2.23.
Regarding YQDMIYAVGGCDDTTELSSAERYN, the protein stability index was determined as 2.69.
As to YQDMIYAVGGTDDTTELSSAERYN, the protein stability index was 2.23.
Regarding YQDMIYAVGGKDDTTELSSAERYN, the protein stability index was found to be 2.55.
In the case of YQDMIYAVGGPDDTTELSSAERYN, the protein stability index was found to be 2.57.
On to YQDMIYAVGGEDDTTELSSAERYN, for which the protein stability index is 3.
For YQDMIYAVGGMDDTTELSSAERYN, the protein stability index stood at 2.32.
In the case of YQDMIYAVGGIDDTTELSSAERYN it was 2.44; in that of YQDMIYAVGGVDDTTELSSAERYN, 2.16; in that of YQDMIYAVGGHDDTTELSSAERYN, 2.1.
On to YQDMIYAVGGYDDTTELSSAERYN, for which the protein stability index turned out to be 1.91.
As to YQDMIYAVGGADDTTELSSAERYN, the protein stability index turned out to be 2.54.
For the variant YQDMIYAVGGDDDTTELSSAERYN, the protein stability index was found to be 3.01.
On to YQDMIYAVGGSDDTTELSSAERYN, for which the protein stability index was found to be 2.9.
For the variant YQDMIYAVGGLDDTTELSSAERYN, the protein stability index came out at 1.99.
In the case of YQDMIYAVGGQDDTTELSSAERYN it was 2.75; in that of YQDMIYAVGGNDDTTELSSAERYN, 2.49; in that of YQDMIYAVGGGDDTTELSSAERYN, 2.33.
Take YQDMIYAVGGFDDTTELSSAERYN: the protein stability index is 2.08.
As for YQDMIYAVGGWDDTTELSSAERYN, the figure is 2.08.
